Experiments:
[1] = target: rHuman Erythropoietin R/Fc Chimera, CF (R&D Systems Cat#963-ER) (human) (UniProt P19235); assay: Multispot ECL (MSD), antigen spotted on plate, Fab […]; blank spot 162
[2] = target: rHuman HGF R/c-MET/Fc Chimera, CF (R&D Systems Cat#358-MT/CF) (human) (UniProt P08581); assay: as above
[3] = target: rHuman IGF-1 sR, (IGF-1 sR), CF (R&D Systems Cat#391-GR) (human) (UniProt P08069); assay: as above
[4] = target: rHuman Notch-1/Fc Chimera, CF (R&D Systems Cat#3647-TK) (human) (UniProt P46531); assay: as above
[5] = target: rHuman CD44/Fc Chimera, CF (R&D Systems Cat#3660-CD) (human) (UniProt P16070); assay: as above
[6] = target: rHuman P-Cadherin/Fc Chimera, CF (R&D Systems Cat#861-PC) (human) (UniProt P22223); assay: as above
[7] = target: rHuman ErbB2/Fc Chimera, CF (R&D Systems Cat#1129-ER) (human) (UniProt P04626); assay: as above
[8] = target: rHuman EGF R/Fc Chimera, CF (R&D Systems Cat#344-ER) (human) (UniProt P00533); assay: as above
[9] = target: rHuman Erythropoietin R/Fc Chimera, CF (R&D Systems Cat#963-ER) (human) (UniProt P19235); assay: Multispot ECL (MSD), antigen spotted on plate, Fab 170 nM; blank spot 262
[10] = target: rHuman HGF R/c-MET/Fc Chimera, CF (R&D Systems Cat#358-MT/CF) (human) (UniProt P08581); assay: as above
[11] = target: rHuman IGF-1 sR, (IGF-1 sR), CF (R&D Systems Cat#391-GR) (human) (UniProt P08069); assay: as above
[12] = target: rHuman Notch-1/Fc Chimera, CF (R&D Systems Cat#3647-TK) (human) (UniProt P46531); assay: as above
[13] = target: rHuman CD44/Fc Chimera, CF (R&D Systems Cat#3660-CD) (human) (UniProt P16070); assay: as above
[14] = target: rHuman P-Cadherin/Fc Chimera, CF (R&D Systems Cat#861-PC) (human) (UniProt P22223); assay: as above
[15] = target: rHuman ErbB2/Fc Chimera, CF (R&D Systems Cat#1129-ER) (human) (UniProt P04626); assay: as above
[16] = target: rHuman EGF R/Fc Chimera, CF (R&D Systems Cat#344-ER) (human) (UniProt P00533); assay: as above
[17] = target: rHuman Erythropoietin R/Fc Chimera, CF (R&D Systems Cat#963-ER) (human) (UniProt P19235); assay: Multispot ECL (MSD), antigen spotted on plate, Fab 340 nM; blank spot 554
[18] = target: rHuman HGF R/c-MET/Fc Chimera, CF (R&D Systems Cat#358-MT/CF) (human) (UniProt P08581); assay: as above
[19] = target: rHuman IGF-1 sR, (IGF-1 sR), CF (R&D Systems Cat#391-GR) (human) (UniProt P08069); assay: as above
[20] = target: rHuman Notch-1/Fc Chimera, CF (R&D Systems Cat#3647-TK) (human) (UniProt P46531); assay: as above
[21] = target: rHuman CD44/Fc Chimera, CF (R&D Systems Cat#3660-CD) (human) (UniProt P16070); assay: as above
[22] = target: rHuman P-Cadherin/Fc Chimera, CF (R&D Systems Cat#861-PC) (human) (UniProt P22223); assay: as above
[23] = target: rHuman ErbB2/Fc Chimera, CF (R&D Systems Cat#1129-ER) (human) (UniProt P04626); assay: as above
[24] = target: rHuman EGF R/Fc Chimera, CF (R&D Systems Cat#344-ER) (human) (UniProt P00533); assay: as above
[25] = target: rHuman Erythropoietin R/Fc Chimera, CF (R&D Systems Cat#963-ER) (human) (UniProt P19235); assay: Multispot ECL (MSD), antigen spotted on plate, Fab 85.0 nM; blank spot 292
[26] = target: rHuman HGF R/c-MET/Fc Chimera, CF (R&D Systems Cat#358-MT/CF) (human) (UniProt P08581); assay: as above
[27] = target: rHuman IGF-1 sR, (IGF-1 sR), CF (R&D Systems Cat#391-GR) (human) (UniProt P08069); assay: as above
[28] = target: rHuman Notch-1/Fc Chimera, CF (R&D Systems Cat#3647-TK) (human) (UniProt P46531); assay: as above
[29] = target: rHuman CD44/Fc Chimera, CF (R&D Systems Cat#3660-CD) (human) (UniProt P16070); assay: as above
[30] = target: rHuman P-Cadherin/Fc Chimera, CF (R&D Systems Cat#861-PC) (human) (UniProt P22223); assay: as above
[31] = target: rHuman ErbB2/Fc Chimera, CF (R&D Systems Cat#1129-ER) (human) (UniProt P04626); assay: as above
[32] = target: rHuman EGF R/Fc Chimera, CF (R&D Systems Cat#344-ER) (human) (UniProt P00533); assay: as above

rHuman Erythropoietin R/Fc Chimera, CF (R&D Systems Cat#963-ER) (human), sequence (P19235 25-250, change not shown): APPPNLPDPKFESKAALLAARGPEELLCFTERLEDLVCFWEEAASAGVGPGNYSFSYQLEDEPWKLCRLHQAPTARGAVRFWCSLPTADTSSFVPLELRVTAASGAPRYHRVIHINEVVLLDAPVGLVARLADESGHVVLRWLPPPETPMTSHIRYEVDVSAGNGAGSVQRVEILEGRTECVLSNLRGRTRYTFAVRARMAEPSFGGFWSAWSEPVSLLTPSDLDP
rHuman HGF R/c-MET/Fc Chimera, CF (R&D Systems Cat#358-MT/CF) (human), sequence (P08581 25-932, change not shown): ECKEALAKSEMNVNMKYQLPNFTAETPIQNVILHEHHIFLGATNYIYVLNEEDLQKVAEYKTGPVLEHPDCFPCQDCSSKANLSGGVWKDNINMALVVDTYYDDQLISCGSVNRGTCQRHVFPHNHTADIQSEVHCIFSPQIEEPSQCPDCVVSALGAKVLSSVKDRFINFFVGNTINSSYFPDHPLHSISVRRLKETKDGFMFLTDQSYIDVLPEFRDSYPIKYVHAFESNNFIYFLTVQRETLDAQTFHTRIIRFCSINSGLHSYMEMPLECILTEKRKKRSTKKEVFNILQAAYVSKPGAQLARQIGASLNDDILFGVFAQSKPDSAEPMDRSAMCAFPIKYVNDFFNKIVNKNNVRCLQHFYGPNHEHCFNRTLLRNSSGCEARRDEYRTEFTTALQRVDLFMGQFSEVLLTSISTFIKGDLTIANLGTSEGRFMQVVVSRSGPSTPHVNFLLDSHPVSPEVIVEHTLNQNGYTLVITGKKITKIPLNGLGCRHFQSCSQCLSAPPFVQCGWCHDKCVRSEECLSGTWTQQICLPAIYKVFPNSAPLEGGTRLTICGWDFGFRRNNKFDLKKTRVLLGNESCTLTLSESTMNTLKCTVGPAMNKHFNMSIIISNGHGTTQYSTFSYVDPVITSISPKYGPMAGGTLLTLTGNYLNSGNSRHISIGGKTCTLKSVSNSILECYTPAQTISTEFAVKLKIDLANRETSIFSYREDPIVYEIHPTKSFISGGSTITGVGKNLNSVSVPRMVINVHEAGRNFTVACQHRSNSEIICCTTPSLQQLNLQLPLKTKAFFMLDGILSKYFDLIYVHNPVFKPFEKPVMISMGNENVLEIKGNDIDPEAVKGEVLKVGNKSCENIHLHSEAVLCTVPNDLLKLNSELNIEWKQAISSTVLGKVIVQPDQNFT

- ECL signal [1]: 494
- ECL signal [2]: 607
- ECL signal [3]: 646
- ECL signal [4]: 649
- ECL signal [5]: 522
- ECL signal [6]: 421
- ECL signal [7]: 866
- ECL signal [8]: 528
- ECL signal [9]: 790
- ECL signal [10]: 757
- ECL signal [11]: 832
- ECL signal [12]: 816
- ECL signal [13]: 660
- ECL signal [14]: 744
- ECL signal [15]: 964
- ECL signal [16]: 826
- ECL signal [17]: 1260
- ECL signal [18]: 1240
- ECL signal [19]: 1040
- ECL signal [20]: 1210
- ECL signal [21]: 959
- ECL signal [22]: 1160
- ECL signal [23]: 1230
- ECL signal [24]: 1210
- ECL signal [25]: 817
- ECL signal [26]: 998
- ECL signal [27]: 891
- ECL signal [28]: 780
- ECL signal [29]: 693
- ECL signal [30]: 709
- ECL signal [31]: 844
- ECL signal [32]: 1000
B1: Fab VH4-34_IGHD7-27*01_IGHJ4*01 & V4-6_IGLJ4*01 (Fab, V domains shown)
VH: QVQLQQWGAGLLKPSETLSLTCAVYGGSFSGYYWSWIRQPPGKGLEWIGEINHSGSTNYNPSLKSRVTISVDTSKNQFSLKLSSVTAADTAVYYCARANWGDYFDYWGQGTLVTVSS
VL: RPVLTQPPSLSASPGATARLPCTLSSDLSVGGKNMFWYQQKPGSSPRLFLYHYSDSDKQLGPGVPSRVSGSKETSSNTAFLLISGLQPEDEADYYCQVYESSANFVFGGGTQLIIL
